Test results from patent publication US20230212549A1 (3B PHARMACEUTICALS, published 2023).
Where “and” joins values, the source holds several entries; their conditions need not be identical. Identical values can stand only once. Numbered stars: 1 amine (or outer) side, 2 acyl side, 3 side chain; on linkers, the order of the positions; unused ones are H or OH. Bridge positions count the residues as written; N and C are the ends. Square brackets hold non-standard residues; d marks the D form. Primed or numbered codes have the meaning given here. * marks the point of attachment. Ttds″ = 1,13-diamino-4,7,10-trioxatridecan-succinamic acid spacer, O=C(CCC(=O)[*:2])NCCCOCCOCCOCCCN[*:1]; TBMB(SCH2CH2NH-DOTA) = O=C(O)CN1CCN(CC(=O)O)CCN(CC(=O)NCCSCc2cc(C[*:1])cc(C[*:2])c2)CCN(CC(=O)O)CC1; DOTA = O=C(O)CN1CCN(CC(=O)O)CCN(CC(=O)*)CCN(CC(=O)O)CC1; Biotin = O=C1N[C@H]2[C@H](CS[C@H]2CCCCC(=O)*)N1; mXylylene = c1cc(C[*:1])cc(C[*:2])c1; Pentanesulfonyl = CCCCCS(=O)(=O)*; Hexanoyl = CCCCCC(=O)*; NH(CH2)5NH2 = NCCCCCN*; GABA = NCCCC(=O)O; βAla = NCCC(=O)O; Sar = CNCC(=O)O

B1: Pentyl-SO2-[Cys(tMeBn(DOTA-AET))-Pro-Pro-Thr-Glu-Phe-Cys]-OH (peptide)
peptide: Pentanesulfonyl-CPPTEFC-OH
modifications: linker 1-7 via TBMB(SCH2CH2NH-DOTA)
SMILES: CCCCCS(=O)(=O)N[C@H]1CSCc2cc(CSCCNC(=O)CN3CCN(CC(=O)O)CCN(CC(=O)O)CCN(CC(=O)O)CC3)cc(c2)CSC[C@@H](C(=O)O)NC(=O)[C@H](Cc2ccccc2)NC(=O)[C@H](CCC(=O)O)NC(=O)[C@H]([C@@H](C)O)NC(=O)[C@@H]2CCCN2C(=O)[C@@H]2CCCN2C1=O
notes: also called 3BP-3691
B2: Hex-[Cys(tMeBn(DOTA-AET))-Nmg-Pro-Thr-Gln-Phe-Cys]-OH (peptide)
peptide: Hexanoyl-C[Sar]PTQFC-OH
modifications: linker 1-7 via TBMB(SCH2CH2NH-DOTA)
SMILES: CCCCCC(=O)N[C@H]1CSCc2cc(CSCCNC(=O)CN3CCN(CC(=O)O)CCN(CC(=O)O)CCN(CC(=O)O)CC3)cc(c2)CSC[C@@H](C(=O)O)NC(=O)[C@H](Cc2ccccc2)NC(=O)[C@H](CCC(N)=O)NC(=O)[C@H]([C@@H](C)O)NC(=O)[C@@H]2CCCN2C(=O)CN(C)C1=O
notes: also called 3BP-3678
B3: Hex-[Cys(tMeBn(DOTA-AET))-Pro-Pro-Thr-Gln-Phe-AET] (peptide)
peptide: CPPTQFX
modifications: not fully specified; N-term Hex; X7 = AET (2-aminoethanethiol, no carboxyl group); Cys1/AET7 thioether-bridged by tMeBn carrying DOTA-AET
notes: also called 3BP-3654
B4: Hex-[Cys(tMeBn(DOTA-AET))-Pro-Pro-Thr-Gln-Mpa-Cys]-OH (peptide)
peptide: Hexanoyl-CPPTQXC-OH
modifications: linker 1-7 via TBMB(SCH2CH2NH-DOTA); not fully specified (residue 6); printed as Hex-[Cys(tMeBn(DOTA-AET))-Pro-Pro-Thr-Gln-Mpa-Cys]-OH
notes: also called 3BP-3664
B5: H-Met-[Cys(3MeBn)-Pro-Pro-Thr-Glu-Phe-Cys]-Asp-His-Phe-Arg-Asp-Ttds-Lys(Bio)-NH2 (peptide)
peptide: H-MCPPTEFCDHFRD[Ttds″]K(Biotin)-NH2
modifications: linker 2-8 via mXylylene
SMILES: CSCC[C@H](N)C(=O)N[C@H]1CSCc2cccc(c2)CSC[C@@H](C(=O)N[C@@H](CC(=O)O)C(=O)N[C@@H](Cc2c[nH]cn2)C(=O)N[C@@H](Cc2ccccc2)C(=O)N[C@@H](CCCNC(=N)N)C(=O)N[C@@H](CC(=O)O)C(=O)NCCCOCCOCCOCCCNC(=O)CCC(=O)N[C@@H](CCCCNC(=O)CCCC[C@@H]2SC[C@@H]3NC(=O)N[C@@H]32)C(N)=O)NC(=O)[C@H](Cc2ccccc2)NC(=O)[C@H](CCC(=O)O)NC(=O)[C@H]([C@@H](C)O)NC(=O)[C@@H]2CCCN2C(=O)[C@@H]2CCCN2C1=O
notes: also called 3BP-2881
B6: Hex-[Cys(3MeBn)-Pro-Pro-Thr-Glu-Phe-Cys]-Asp-His-Phe-Arg-Asp-NH2 (peptide)
peptide: Hexanoyl-CPPTEFCDHFRD-NH2
modifications: linker 1-7 via mXylylene
SMILES: CCCCCC(=O)N[C@H]1CSCc2cccc(c2)CSC[C@@H](C(=O)N[C@@H](CC(=O)O)C(=O)N[C@@H](Cc2c[nH]cn2)C(=O)N[C@@H](Cc2ccccc2)C(=O)N[C@@H](CCCNC(=N)N)C(=O)N[C@@H](CC(=O)O)C(N)=O)NC(=O)[C@H](Cc2ccccc2)NC(=O)[C@H](CCC(=O)O)NC(=O)[C@H]([C@@H](C)O)NC(=O)[C@@H]2CCCN2C(=O)[C@@H]2CCCN2C1=O
B7: Hex-[Cys(3MeBn)-Pro-Pro-Thr-Glu-Phe-Cys]-Bal-OH (peptide)
peptide: Hexanoyl-CPPTEFC[βAla]-OH
modifications: linker 1-7 via mXylylene
SMILES: CCCCCC(=O)N[C@H]1CSCc2cccc(c2)CSC[C@@H](C(=O)NCCC(=O)O)NC(=O)[C@H](Cc2ccccc2)NC(=O)[C@H](CCC(=O)O)NC(=O)[C@H]([C@@H](C)O)NC(=O)[C@@H]2CCCN2C(=O)[C@@H]2CCCN2C1=O
notes: also called 3BP-3371
B8: Ac-Met-[Cys(3MeBn)-Pro-Pro-Thr-Glu-Phe-Cys]-Asp-His-Phe-Arg-Asp-NH2 (peptide)
peptide: Ac-MCPPTEFCDHFRD-NH2
modifications: linker 2-8 via mXylylene
SMILES: CSCC[C@H](NC(C)=O)C(=O)N[C@H]1CSCc2cccc(c2)CSC[C@@H](C(=O)N[C@@H](CC(=O)O)C(=O)N[C@@H](Cc2c[nH]cn2)C(=O)N[C@@H](Cc2ccccc2)C(=O)N[C@@H](CCCNC(=N)N)C(=O)N[C@@H](CC(=O)O)C(N)=O)NC(=O)[C@H](Cc2ccccc2)NC(=O)[C@H](CCC(=O)O)NC(=O)[C@H]([C@@H](C)O)NC(=O)[C@@H]2CCCN2C(=O)[C@@H]2CCCN2C1=O
notes: also called 3BP-2975
B9: Ac-Met-[Cys(3MeBn)-Gly-Pro-Thr-Glu-Phe-Cys]-Asp-His-Phe-Arg-Asp-NH2 (peptide)
peptide: Ac-MCGPTEFCDHFRD-NH2
modifications: linker 2-8 via mXylylene
SMILES: CSCC[C@H](NC(C)=O)C(=O)N[C@H]1CSCc2cccc(c2)CSC[C@@H](C(=O)N[C@@H](CC(=O)O)C(=O)N[C@@H](Cc2c[nH]cn2)C(=O)N[C@@H](Cc2ccccc2)C(=O)N[C@@H](CCCNC(=N)N)C(=O)N[C@@H](CC(=O)O)C(N)=O)NC(=O)[C@H](Cc2ccccc2)NC(=O)[C@H](CCC(=O)O)NC(=O)[C@H]([C@@H](C)O)NC(=O)[C@@H]2CCCN2C(=O)CNC1=O
notes: also called 3BP-3214
B10: Ac-Met-[Cys(3MeBn)-Pro-Pro-Thr-Glu-Phe-Cys]-Asp-Ala-Phe-Arg-Asp-NH2 (peptide)
peptide: Ac-MCPPTEFCDAFRD-NH2
modifications: linker 2-8 via mXylylene
SMILES: CSCC[C@H](NC(C)=O)C(=O)N[C@H]1CSCc2cccc(c2)CSC[C@@H](C(=O)N[C@@H](CC(=O)O)C(=O)N[C@@H](C)C(=O)N[C@@H](Cc2ccccc2)C(=O)N[C@@H](CCCNC(=N)N)C(=O)N[C@@H](CC(=O)O)C(N)=O)NC(=O)[C@H](Cc2ccccc2)NC(=O)[C@H](CCC(=O)O)NC(=O)[C@H]([C@@H](C)O)NC(=O)[C@@H]2CCCN2C(=O)[C@@H]2CCCN2C1=O
notes: also called 3BP-3195
B11: Ac-Met-[Cys(3MeBn)-Pro-Pro-Thr-Glu-Phe-Cys]-Asp-His-Ala-Arg-Asp-NH2 (peptide)
peptide: Ac-MCPPTEFCDHARD-NH2
modifications: linker 2-8 via mXylylene
SMILES: CSCC[C@H](NC(C)=O)C(=O)N[C@H]1CSCc2cccc(c2)CSC[C@@H](C(=O)N[C@@H](CC(=O)O)C(=O)N[C@@H](Cc2c[nH]cn2)C(=O)N[C@@H](C)C(=O)N[C@@H](CCCNC(=N)N)C(=O)N[C@@H](CC(=O)O)C(N)=O)NC(=O)[C@H](Cc2ccccc2)NC(=O)[C@H](CCC(=O)O)NC(=O)[C@H]([C@@H](C)O)NC(=O)[C@@H]2CCCN2C(=O)[C@@H]2CCCN2C1=O
notes: also called 3BP-3196
B12: Ac-Met-[Cys(3MeBn)-Pro-Pro-Thr-Glu-Phe-Cys]-Asp-His-Phe-Arg-Ala-NH2 (peptide)
peptide: Ac-MCPPTEFCDHFRA-NH2
modifications: linker 2-8 via mXylylene
SMILES: CSCC[C@H](NC(C)=O)C(=O)N[C@H]1CSCc2cccc(c2)CSC[C@@H](C(=O)N[C@@H](CC(=O)O)C(=O)N[C@@H](Cc2c[nH]cn2)C(=O)N[C@@H](Cc2ccccc2)C(=O)N[C@@H](CCCNC(=N)N)C(=O)N[C@@H](C)C(N)=O)NC(=O)[C@H](Cc2ccccc2)NC(=O)[C@H](CCC(=O)O)NC(=O)[C@H]([C@@H](C)O)NC(=O)[C@@H]2CCCN2C(=O)[C@@H]2CCCN2C1=O
notes: also called 3BP-3198
B13: Hex-[Cys(3MeBn)-Pro-Pro-Thr-Glu-Phe-Cys]-Asp-Gab-Arg-NH2 (peptide)
peptide: Hexanoyl-CPPTEFCD[GABA]R-NH2
modifications: linker 1-7 via mXylylene
SMILES: CCCCCC(=O)N[C@H]1CSCc2cccc(c2)CSC[C@@H](C(=O)N[C@@H](CC(=O)O)C(=O)NCCCC(=O)N[C@@H](CCCNC(=N)N)C(N)=O)NC(=O)[C@H](Cc2ccccc2)NC(=O)[C@H](CCC(=O)O)NC(=O)[C@H]([C@@H](C)O)NC(=O)[C@@H]2CCCN2C(=O)[C@@H]2CCCN2C1=O
notes: also called 3BP-3300
B14: Hex-[Cys(3MeBn)-Pro-Pro-Thr-Gln-Phe-Cys]-Asp-Ttds-Lys(DOTA)-NH2 (peptide)
peptide: Hexanoyl-CPPTQFCD[Ttds″]K(DOTA)-NH2
modifications: linker 1-7 via mXylylene
SMILES: CCCCCC(=O)N[C@H]1CSCc2cccc(c2)CSC[C@@H](C(=O)N[C@@H](CC(=O)O)C(=O)NCCCOCCOCCOCCCNC(=O)CCC(=O)N[C@@H](CCCCNC(=O)CN2CCN(CC(=O)O)CCN(CC(=O)O)CCN(CC(=O)O)CC2)C(N)=O)NC(=O)[C@H](Cc2ccccc2)NC(=O)[C@H](CCC(N)=O)NC(=O)[C@H]([C@@H](C)O)NC(=O)[C@@H]2CCCN2C(=O)[C@@H]2CCCN2C1=O
notes: also called 3BP-3395
B15: Hex-[Cys(3MeBn)-Pro-Pro-Thr-Glu-Phe-Cys]-Asp-Ttds-Lys(DOTA)-NH2 (peptide)
peptide: Hexanoyl-CPPTEFCD[Ttds″]K(DOTA)-NH2
modifications: linker 1-7 via mXylylene
SMILES: CCCCCC(=O)N[C@H]1CSCc2cccc(c2)CSC[C@@H](C(=O)N[C@@H](CC(=O)O)C(=O)NCCCOCCOCCOCCCNC(=O)CCC(=O)N[C@@H](CCCCNC(=O)CN2CCN(CC(=O)O)CCN(CC(=O)O)CCN(CC(=O)O)CC2)C(N)=O)NC(=O)[C@H](Cc2ccccc2)NC(=O)[C@H](CCC(=O)O)NC(=O)[C@H]([C@@H](C)O)NC(=O)[C@@H]2CCCN2C(=O)[C@@H]2CCCN2C1=O
notes: also called 3BP-3396
B16: H-met-[Cys(3MeBn)-Pro-Pro-Thr-Glu-Phe-Cys]-Asp-His-Phe-Arg-Asp-NH2 (peptide)
peptide: H-[dM]CPPTEFCDHFRD-NH2
modifications: linker 2-8 via mXylylene
SMILES: CSCC[C@@H](N)C(=O)N[C@H]1CSCc2cccc(c2)CSC[C@@H](C(=O)N[C@@H](CC(=O)O)C(=O)N[C@@H](Cc2c[nH]cn2)C(=O)N[C@@H](Cc2ccccc2)C(=O)N[C@@H](CCCNC(=N)N)C(=O)N[C@@H](CC(=O)O)C(N)=O)NC(=O)[C@H](Cc2ccccc2)NC(=O)[C@H](CCC(=O)O)NC(=O)[C@H]([C@@H](C)O)NC(=O)[C@@H]2CCCN2C(=O)[C@@H]2CCCN2C1=O
notes: also called 3BP-2976

Columns and labels:
[1] = target: Recombinant human FAP (R&D systems, #3715-SE) (human, UniProt Q12884 26-760); experiment: cell-based or functional assay
[2] = target: T1, fibroblast activation protein (FAP) on FAP-expressing human WI-38 fibroblasts (human, UniProt Q12884 1-760); experiment: competitive FACS, WI-38 cells, vs Cy5 tracer m3; A = pIC50 >8.0
T1 construct: also called human FAP

| Binder | pIC50 Category (Activity) [1] | pIC50 Category (FACS) [2] |
| --- | --- | --- |
| B1 | 7.1 pIC50 and 8 pIC50 | > 8 pIC50 |
| B2 | > 8 pIC50 | > 8 pIC50 |
| B3 | > 8 pIC50 | > 8 pIC50 |
| B4 | > 8 pIC50 | > 8 pIC50 |
| B5 | > 8 pIC50 | > 8 pIC50 |
| B6 | > 8 pIC50 | > 8 pIC50 |
| B7 | 7.1 pIC50 and 8 pIC50 | > 8 pIC50 |
| B8 | > 8 pIC50 | > 8 pIC50 |
| B9 | > 8 pIC50 | > 8 pIC50 |
| B10 | 7.1 pIC50 and 8 pIC50 | > 8 pIC50 |
| B11 | > 8 pIC50 | > 8 pIC50 |
| B12 | > 8 pIC50 | > 8 pIC50 |
| B13 | > 8 pIC50 | > 8 pIC50 |
| B14 | > 8 pIC50 | > 8 pIC50 |
| B15 | > 8 pIC50 | > 8 pIC50 |
| B16 | > 8 pIC50 | > 8 pIC50 |
| Hexanoyl-CPPTQFCD-{NH(CH2)5NH2-DOTA′} (linker 1-7 via mXylylene, also called 3BP-3403) [Hex-[Cys(3MeBn)-Pro-Pro-Thr-Gln-Phe-Cys]-Asp-Ape-NH-DOTA′] | > 8 pIC50 | > 8 pIC50 |
